{"source": "paper PMC4428439", "target": "IraP with a C-terminal His10-tag, purified (E. coli) (UniProt P0AAN9)", "sequence (P0AAN9 whole entry)": "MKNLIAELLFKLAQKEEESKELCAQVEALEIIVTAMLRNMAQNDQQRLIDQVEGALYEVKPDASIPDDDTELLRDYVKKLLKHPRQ"}
{"substance": "RssBN, N-terminal domain of RssB (residues 1-129), untagged, purified (from UniProt P0AEV1 1-129) (domain or fragment)", "values": [{"measurement": "rate of σ^S turnover in the presence of IraP and AcP with a 5-fold excess of RssBN (Figure S4)", "value": 2, "unit": "fold"}]}
